Data published in paper PMC10158025.

Target: CtBP2-Gluc-N / CtBP2-Gluc-C (CtBP-Gluc-PCA reporter) (human) (UniProt P56545)
Assay: split reporter (BiFC, NanoBiT); Gluc-PCA in 293 cells co-transfected with the Gluc-N and Gluc-C fusions, luminance read; MTOB treatment gave a dose-dependent reduction of the signal

fold lower Gluc-PCA signal than the Zip-Zip dimer: 10 fold
Substance: CtBP2-Gluc-N / CtBP2-Gluc-C (CtBP-Gluc-PCA reporter), P56545 1-445 (natural protein; other documents disagree on this pair)
